Data taken from patent US20250115671A1 (BEIGENE, published 2025).
Numbering of substitutions follows the chain as printed. Where two headings read alike, the source gives them in different places.

B1: 4A19 (antibody, V domains shown)
VH: QVQLVQSGAEVKKPGASVKVSCKASGYTFTDSEMHWVRQATGQGLEWMGAIQPETGGTAYNQKFKARVTMTRDTSISTAYMELSSLRSEDTAVYYCARRRRNFDYWGQGTLVTVSS
VL: DIVMTQTPLSLSVTPGQPASISCRSSQSLFHSSGNTYLHWYLQKPGQPPQLLIYKVSNRFSGVPDRFSGSGSGTDFTLKISRVEAEDVGVYYCSQSTHVPFTFGQGTKLEIKR
B2: Ch305-AF (antibody, V domains shown)
VH: QVQMKQSGPSLVQPSQSLSITCTVSGFSLTSYGVHWVRQSPGKGLEWLGVIWRGGTTDYNAAFMSRLSFTKDSSKSQVFFKLNSLQADDTAIYYCAKNRVTTVVAPNFYAMDYWGQGTSVTVSS
VL: DIVMTQSPSSLAVSVGEKVTMSCKSSQSLLYSGNQKNYLAWYQQKPGQSPKLLIYWASTRKSGVPDRLTGSGSGTDFTLTISSVKAEDLAAYYCQQYYTYPLTFGAGTRLEIK
notes: human IgG1/kappa; also called afucosylated Ch305
B3: hu305-5W-3a-AF (antibody, V domains shown)
VH: QVQLKQSGPGLVKPSETLSLTCTVSGFSLAVYGVHWVRQPPGKGLEWLGVIWRGGTTDYNPSLKSRLTFSKDSSKSQVSLKLSSVTAADTAVYYCAKNRVTTVVAPNFYAMDYWGQGTLVTVSS
VL: DIVMTQSPDSLAVSLGERATINCKSSQSLLYSGNQKNYLAWYQQKPGQPPKLLIYWASTRKSGVPDRFSGSGSGTDFTLTISSLKAEDVAVYYCQQYYTYPLTFGQGTRLEIK
notes: also called afucosylated hu305-5W-3a
B4: hu305-4F-2m-AF (antibody, V domains shown)
VH: B3 VH with K5Q, Q6E, E16Q
VL: B3 VL with A19V, P49S, K85Q, V91A
B5: hu305-4F-2l-AF (antibody, V domains shown)
VH: B3 VH with K5Q, Q6E, E16Q
VL: B3 VL with A19V, I21M, P49S, K85Q, V91A
notes: also called hu305-4F-21-AF; hu305-4F-21
B6: hu305-5P-3a-AF (antibody, V domains shown)
VH: B3 VH with A30T, V31S, L67V, S76N
VL: B3 VL
B7: 433H (antibody, from another filing, V domains shown)
VH: EVQLVETGGGLVQPKGSLRLSCAASGFPFNTFAMNWVRQAPGKGLEWLARIRSKSNNYATYYADSVKDRFTISRDDSRRMLYLLMNNVKFEDTAIYYCVRGKENNYGYAMDYWGQGTSVTVSS
VL: DIVMTQAAPSVPVTPGESVSISCRSSQSLLHSNGNTYLYWFLQRPGQSPQLLIYRMSNLASGVPDRFSGSGSGTAFTLRISRVEAEDVGVYYCMQHLEYPFTFGIGTKLELKR

Legend:
human CCR8 [1] = target: T1, human CCR8 (human, UniProt P51685 1-355); assay: flow cytometry, Jurkat-human CCR8 cells
T1 sequence (P51685 whole entry): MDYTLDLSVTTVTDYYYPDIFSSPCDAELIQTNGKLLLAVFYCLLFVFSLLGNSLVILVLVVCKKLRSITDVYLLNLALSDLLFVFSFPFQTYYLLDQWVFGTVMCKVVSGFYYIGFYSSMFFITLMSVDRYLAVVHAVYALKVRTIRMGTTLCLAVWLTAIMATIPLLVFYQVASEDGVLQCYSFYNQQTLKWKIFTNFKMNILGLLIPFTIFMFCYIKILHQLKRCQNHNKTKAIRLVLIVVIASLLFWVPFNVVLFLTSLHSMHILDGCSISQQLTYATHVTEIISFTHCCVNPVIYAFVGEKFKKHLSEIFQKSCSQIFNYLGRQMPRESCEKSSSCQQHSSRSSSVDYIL
Procedure: To evaluate the binding activity of anti-CCR8 antibodies to bind CCR8 expressed on living cells, Jurkat cells were engineered to over-express human CCR8. Jurkat-human CCR8 cells were seeded in 96-well plate and incubated with a series of dilutions of anti-CCR8 antibodies. Goat anti-human IgG was used as secondary antibody to detect antibody binding to the cell surface. EC50 values for dose-dependent binding to human CCR8 were determined by fitting the dose-response data to the four-parameter logistic model with GraphPad Prism. As shown in Table 4 and FIG. 3 the CCR8 antibodies had high binding affinity to human CCR8.

human CCR8 [2] = target: T1, human CCR8; assay: flow cytometry, stimulated human primary Treg cells (high CCR8)
Procedure: Treg binding of the humanized antibodies was measured on Treg cells from human PBMC. Briefly, CD25+ cells were isolated from human PBMC. The cells were stimulated with IL-2, TGFβ and anti-CD3/CD28 beads for high CCR8-expression level Treg cells. Next, Treg cells were seeded in 96-well plate and incubated with a series of dilutions of anti-CCR8 antibodies. Goat anti-human IgG was used as secondary antibody to detect antibody binding to the cell surface. EC50 values for dose-dependent binding to human CCR8 were determined by fitting the dose-response data to the four-parameter logistic model with GraphPad Prism. As shown in FIG. 6A and Table 12 the hu305-5W-3a had the highest binding affinity to CCR8 on Treg cells of the humanized antibodies. As noted in Table 12 and FIG. 6A below, the hu305-5W-3a antibody also had the lowest IC50 regarding reducing ligand-receptor interaction.

[3] = target: T2, human CCR8 N-terminal domain-mouse Fc tag fusion protein (human (CCR8 part), mouse IgG2a Fc); assay: ELISA, plate coated with human CCR8 N-terminal domain-Fc fusion
T2 construct: also called huCCR8-N-mIgG2a; human CCR8 N-terminal protein
T2 chain: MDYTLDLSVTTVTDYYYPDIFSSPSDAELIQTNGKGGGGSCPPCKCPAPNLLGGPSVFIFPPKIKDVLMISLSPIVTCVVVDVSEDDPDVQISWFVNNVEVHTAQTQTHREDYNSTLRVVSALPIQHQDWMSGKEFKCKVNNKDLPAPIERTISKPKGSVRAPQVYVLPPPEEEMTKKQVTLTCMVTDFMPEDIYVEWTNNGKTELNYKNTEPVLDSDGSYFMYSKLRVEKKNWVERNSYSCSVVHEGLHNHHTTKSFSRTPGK
Procedure: To determine whether anti-CCR8 antibodies bind to the N-terminal domain of human CCR8, ELISA plates were coated with human CCR8 N-terminal domain-mouse Fc tag fusion protein (SEQ ID NO: 28 and 29) overnight at 4° C. After washing and blocking, serially diluted anti-CCR8 antibodies were added to plates and incubated for 1 hour at room temperature. After washing, diluted HRP goat anti-human IgG Fc or HRP goat anti-mouse kappa chain (for 433H) secondary antibodies were added to plates and incubated for 45 minutes at room temperature. After washing, TMB substrate was added to plates for developing and then stopped by adding TMB substrate stop solution. The absorbance was read at 450 nm using a plate reader. […] It is a non CCR8 N-terminal loop binder.

human CCR8 [4] = target: T1, human CCR8; assay: flow cytometry, Jurkat/huCCR8 cells, Test1
Procedure: (§1) To evaluate the binding activities of anti-CCR8 antibodies to bind native CCR8 on live cells, Jurkat cells (ATCC TIB-15) were engineered to over-express human CCR8. Live Jurkat/huCCR8 cells were seeded in 96-well plate, and were incubated with a series of dilutions of anti-CCR8 antibodies. Alexa Fluor® 647 anti-Human IgG Fc Antibody (Biolegend cat: 410714) was used as a secondary antibody to detect antibody binding to CCR8 expressed on the cell surface. EC50 values for dose-dependent binding to human native CCR8 were determined by fitting the dose-response data to the four-parameter logistic model with GraphPad Prism.

Cynomolgus Monkey CCR8 = target: T3, Cynomolgus Monkey CCR8 (cynomolgus monkey, UniProt O97665 1-356 (rhesus entry)); assay: flow cytometry, 293T-cynoCCR8 cells
T3 construct: also called cyno CCR8; cynoCCR8
T3 sequence (O97665 other isoform, or with tags, fused parts or gaps): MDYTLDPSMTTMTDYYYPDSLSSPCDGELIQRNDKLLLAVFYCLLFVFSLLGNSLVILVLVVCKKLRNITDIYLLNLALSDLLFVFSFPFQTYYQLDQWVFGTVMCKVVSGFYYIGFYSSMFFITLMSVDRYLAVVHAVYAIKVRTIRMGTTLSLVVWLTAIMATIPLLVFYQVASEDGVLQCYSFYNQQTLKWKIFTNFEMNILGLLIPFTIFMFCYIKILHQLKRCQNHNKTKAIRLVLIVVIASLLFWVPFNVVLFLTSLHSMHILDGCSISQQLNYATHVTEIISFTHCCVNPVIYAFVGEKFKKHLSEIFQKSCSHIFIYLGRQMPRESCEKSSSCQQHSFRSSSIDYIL
Procedure: Goat anti-human IgG was used as secondary antibody to detect antibody binding to the cell surface. EC50 values for dose-dependent binding to cyno CCR8 were determined by fitting the dose-response data to the four-parameter logistic model with GraphPad Prism.

human CCR8 [5] = target: T1, human CCR8; assay: cell-based or functional assay
human CCR8 [6] = target: T1, human CCR8; assay: flow cytometry, Jurkat/huCCR8 cells, Test2
Procedure: as §1

human CCR8 [7] = target: T1, human CCR8; assay: cell-based or functional assay; remark: listed apart in the source
human CCR8 [8] = target: T1, human CCR8; assay: FACS binning, Jurkat-huCCR8, 200 nM each; row = unlabeled 1st Ab; competitor (APC labeled 2nd Ab): Ch366-2
human CCR8 [9] = target: T1, human CCR8; assay: FACS binning, Jurkat-huCCR8, 200 nM each; row = unlabeled 1st Ab; competitor (APC labeled 2nd Ab): 433H
human CCR8 [10] = target: T1, human CCR8; assay: FACS binning, Jurkat-huCCR8, 200 nM each; row = unlabeled 1st Ab; competitor (APC labeled 2nd Ab): 4A19
human CCR8 [11] = target: T1, human CCR8; assay: FACS binning, Jurkat-huCCR8, 200 nM each; row = unlabeled 1st Ab; competitor (APC labeled 2nd Ab): Ch326
human CCR8 [12] = target: T1, human CCR8; assay: FACS binning, Jurkat-huCCR8, 200 nM each; row = unlabeled 1st Ab; competitor (APC labeled 2nd Ab): Ch211
human CCR8 [13] = target: T1, human CCR8; assay: FACS binning, Jurkat-huCCR8, 200 nM each; row = unlabeled 1st Ab; competitor (APC labeled 2nd Ab): Ch127
human CCR8 [14] = target: T1, human CCR8; assay: FACS binning, Jurkat-huCCR8, 200 nM each; row = unlabeled 1st Ab; competitor (APC labeled 2nd Ab): Ch305
[15] = target: human CCR8 N-terminal domain-mouse Fc tag fusion protein (human (CCR8 part), mouse IgG2a Fc); assay: ELISA, plate coated with human CCR8 N-terminal domain-Fc fusion

Molecule | Emax (human CCR8 [2]) | EC50 (human CCR8 [4]) | Emax (human CCR8 [4]) | EC50 (Cynomolgus Monkey CCR8) | Emax (Cynomolgus Monkey CCR8) | IC50(nM), blocking activity (human CCR8 [5]) | Imax(%), blocking activity (human CCR8 [5]) | EC50 (human CCR8 [6]) | Emax (human CCR8 [6]) | EC50 (human CCR8 [2]) | EC50 (nM), NK cell mediated cytotoxicity (ADCC) on CCR8-expressing Treg (human CCR8 [7]) | Emax (%), NK cell mediated cytotoxicity (ADCC) on CCR8-expressing Treg (human CCR8 [7]) | other results
hIgG (antibody) | 60 RLU | – | – | – | – | – | – | – | – | – | – | – | Emax (human CCR8 [1]): 204 RFU
B1 | – | – | – | – | – | – | – | – | – | – | – | – | EC50 [3]: 0.11 nM
B2 | 1750 RLU | 3.88 nM | 25200 MFI | 14.8 nM | 11900 RLU | 1.84 nM | 87.8% | 4.75 nM | 16600 MFI | 90.7 nM | 0.064 nM | 75.1% | –
B3 | 2030 RLU | – | – | 12.5 nM | 12400 RLU | 1.82 nM | 87.3% | 2.98 nM | 16700 MFI | 47.6 nM | 0.059 nM | 75.5% | –
B4 | 1860 RLU | 5.83 nM | 22900 MFI | 16.6 nM | 12300 RLU | 13.1 nM | 75.6% | – | – | 136 nM | 0.585 nM | 70.9% | –
B5 | 1760 RLU | 6.01 nM | 23500 MFI | 16.7 nM | 12500 RLU | 6.19 nM | 78% | – | – | 117 nM | 0.396 nM | 72.3% | –
B6 | 1720 RLU | – | – | 9.83 nM | 12600 RLU | 10.5 nM | 77.1% | 2.99 nM | 17500 MFI | 35.2 nM | 0.077 nM | 73.7% | –
B7 | – | – | – | – | – | – | – | – | – | – | – | – | % of the maximum binding of the APC labeled antibody (human CCR8 [8]): 14.2%; % of the maximum binding of the APC labeled antibody (human CCR8 [9]): 3.03%; % of the maximum binding of the APC labeled antibody (human CCR8 [10]): 8.43%; % of the maximum binding of the APC labeled antibody (human CCR8 [11]): 1.87%; % of the maximum binding of the APC labeled antibody (human CCR8 [12]): 39.9%; % of the maximum binding of the APC labeled antibody (human CCR8 [13]): 2.55%; % of the maximum binding of the APC labeled antibody (human CCR8 [14]): 28.9%; EC50 [15]: 0.94 nM
